Holding throughout (experiment): split reporter (BiFC, NanoBiT); protein fragment complementation assay (split luciferase): GLuc1-AP μ subunit and GLuc2-HCV protein transfected pairwise into 293T cells; luciferase at 24 h; normalized luminescence ratio (NLR), positive if NLR >25 (>2.2 SD above a random reference set); mutant panels plotted relative to WT; NS2-AP-1B also tested after treatment with compound 7745, 12i, sunitinib or erlotinib

In test [1] the target is GLuc1-tagged μ subunit of the AP-4 complex (UniProt O00189).
For test [2], the target named is T1, GLuc-tagged T144A mutant AP-1B (μ subunit) (UniProt Q9Y6Q5 1-423, T144A).
T1 construct: μ subunit of adaptor protein complex AP-1B with T144A; also called phosphorylation site mutant AP-1; source: transfected cells (PCA); not shown: GLuc1 luciferase fragment, N-terminal, kept
T1 sequence: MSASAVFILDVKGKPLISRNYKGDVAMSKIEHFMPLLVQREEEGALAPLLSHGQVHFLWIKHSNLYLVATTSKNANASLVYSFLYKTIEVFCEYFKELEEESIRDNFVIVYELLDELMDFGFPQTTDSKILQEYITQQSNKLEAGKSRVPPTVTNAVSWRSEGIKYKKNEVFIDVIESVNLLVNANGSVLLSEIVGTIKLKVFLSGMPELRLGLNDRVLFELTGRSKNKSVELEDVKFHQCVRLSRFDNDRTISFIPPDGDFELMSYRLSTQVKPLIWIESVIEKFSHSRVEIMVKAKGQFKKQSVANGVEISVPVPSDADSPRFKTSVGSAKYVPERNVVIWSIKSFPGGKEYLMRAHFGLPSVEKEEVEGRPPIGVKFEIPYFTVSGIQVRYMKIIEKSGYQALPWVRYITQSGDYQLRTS
The conditions noted are these: partners not purified.

For test [3], the target named is T2, GLuc-tagged T144A mutant AP-1A (μ subunit) (UniProt Q9BXS5 1-423, T144A).
T2 construct: μ subunit of adaptor protein complex AP-1A (AP1M1) with T144A; also called phosphorylation site mutant AP-1; source: transfected cells (PCA); not shown: GLuc1 luciferase fragment, N-terminal, kept
T2 sequence: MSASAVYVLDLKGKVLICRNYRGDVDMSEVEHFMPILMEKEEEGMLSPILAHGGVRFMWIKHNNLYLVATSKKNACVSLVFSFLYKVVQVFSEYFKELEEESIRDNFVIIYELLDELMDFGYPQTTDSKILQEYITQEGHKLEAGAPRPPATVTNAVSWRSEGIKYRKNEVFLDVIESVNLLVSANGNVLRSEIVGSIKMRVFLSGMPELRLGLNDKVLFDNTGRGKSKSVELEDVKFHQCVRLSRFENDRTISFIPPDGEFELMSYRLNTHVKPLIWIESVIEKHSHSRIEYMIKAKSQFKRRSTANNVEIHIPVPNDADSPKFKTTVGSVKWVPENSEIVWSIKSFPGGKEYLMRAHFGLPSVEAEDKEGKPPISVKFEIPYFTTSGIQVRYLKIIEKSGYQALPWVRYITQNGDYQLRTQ
The conditions noted are these: partners not purified.

GLuc1-tagged μ subunit of the AP-4 complex, sequence (O00189 whole entry, one chain of several): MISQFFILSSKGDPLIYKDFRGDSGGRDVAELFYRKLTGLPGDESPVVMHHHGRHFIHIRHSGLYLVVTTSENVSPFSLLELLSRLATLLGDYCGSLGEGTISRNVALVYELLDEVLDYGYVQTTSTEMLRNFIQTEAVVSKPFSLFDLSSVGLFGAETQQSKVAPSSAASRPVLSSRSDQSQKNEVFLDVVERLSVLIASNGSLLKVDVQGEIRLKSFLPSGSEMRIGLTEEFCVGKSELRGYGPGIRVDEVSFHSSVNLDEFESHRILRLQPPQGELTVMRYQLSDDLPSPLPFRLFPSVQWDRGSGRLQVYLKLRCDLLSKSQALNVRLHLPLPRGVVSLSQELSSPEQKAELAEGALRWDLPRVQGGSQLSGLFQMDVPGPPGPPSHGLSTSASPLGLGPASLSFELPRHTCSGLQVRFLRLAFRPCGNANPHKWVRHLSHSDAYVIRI

Turning to “GLuc-NS2 double mutant (L202A-L217A) (natural protein)”, the fold reduction of binding (NLR) relative to WT NS2 in test [1] was 3 fold.
Regarding “GLuc-NS2 quadruple mutant (L202A-L203A-L216A-L217A) (natural protein)”, in test [1], the fold reduction of binding (NLR) relative to WT NS2 was determined as 4 fold.

B1: GLuc2-NS2 (hepatitis C virus nonstructural 2 protein, wild type) (natural protein)
chain: YDASVHGQIGAALLVLITLFTLTPGYKTLLSRFLWWLCYLLTLAEAMVQEWAPPMQVRGGRDGIIWAVAIFCPGVVFDITKWLLAVLGPAYLLKGALTRVPYFVRAHALLRMCTMVRHLAGGRYVQMVLLALGRWTGTYIYDHLTPMSDWAANGLRDLAVAVEPIIFSPMEKKVIVWGAETAACGDILHGLPVSARLGREVLLGPADGYTSKGWSLL
notes: cut product of the polyprotein; also called WT NS2; GLuc-NS2; source: 293T, transfected (PCA); Huh7.5, transfected, membrane fraction (co-IP) and knockout cells (PCA); not shown: GLuc2 luciferase fragment, N-terminal, kept
With B1, the “fold reduction of binding (NLR) relative to WT AP-1B” value in test [2] is about 2 fold. Besides, in test [3], the “fold reduction of binding (NLR) relative to WT AP-1A” value is about 2 fold.

These data come from paper PMC5850324, “Interactions between the Hepatitis C Virus Nonstructural 2 Protein and Host Adaptor Proteins 1 and 4 Orchestrate Virus Release” (mBio, 2018).
